In patent US20180355043A1 one finds ECL signal data, which are given here for 1 substance.

Common to all, as to test: MSD ECL; antigen coated; protocol of Example 3
Test [1] deals with DR4G101: Human HLA-DRA1*01:02/DRB1*04:02 ECD with collagen II peptide CII_257-273 (human).
Test [2] has as its target DR4G102: Human HLA-DRA1*01:02/DRB1*01:01 ECD with collagen II peptide CII_257-273 (human).
In test [3] the target is DR4G107 (HLA DPB4:01, peptide CLIP) (human).
Test [4] deals with DR4G110: Human HLA-DRA1*01:02/DRB1*04:01 ECD with aggrecan peptide N1 (human).
In test [5] the target is DR4G112: Human HLA-DQA1*01:02/DQB1*06:02 ECD with PLP peptide PLP_178-186 (human).
In test [6] the target is DR4G115 (HLA DPB4:01, peptide LCAP) (human).
The target in test [7] is DR4G117: Human HLA-DRA1*01:02/DRB1*03:01 ECD with Collagen II peptide CII_1236-1249 (human).
Test [8] has as its target DR4G142: Human HLA-DRA1*01:02/DRB1*03:01 ECD_VimentineL70A (human).
Test [9] concerns the target DR4G143: Human HLA-DRA1*01:02/DRB1*04:01 ECD_VimentineL70A (human).
Test [10] addresses DR4G145 (HLA DQB2:01, peptide CLIP) (human).
Test [11] addresses DR4G146 (HLA DQB2:01, peptide CLIP) (human).
Test [12] has as its target DR4G86: Human HLA-DRA1*01:02/DRB1*04:01 ECD with CLIP peptide (human).
Test [13] addresses DR4G92: Human HLA-DRA1*01:02/DRB1*04:01 ECD with collagen II peptide CII_257-273 (human).
Test [14] deals with DR4G96: Human HLA-DRA1*01:02/DRB1*01:01 ECD with CLIP peptide (human).
In test [15] the target is DR4G97: Human HLA-DRA1*01:02/DRB1*15:01 ECD with collagen II peptide CII_1236-1249 (human).
Test [16] addresses DR4G98: Human HLA-DRA1*01:02/DRB1*04:02 ECD with collagen II peptide CII_1236-1249 (human).
The target in test [17] is DR4G99: Human HLA-DRA1*01:02/DRB1*01:01 ECD with collagen peptide CII_1236-1249 (human).

DR4G115 (HLA DPB4:01, peptide LCAP) (human), sequence (P20036 29-222, chain 1 of 2): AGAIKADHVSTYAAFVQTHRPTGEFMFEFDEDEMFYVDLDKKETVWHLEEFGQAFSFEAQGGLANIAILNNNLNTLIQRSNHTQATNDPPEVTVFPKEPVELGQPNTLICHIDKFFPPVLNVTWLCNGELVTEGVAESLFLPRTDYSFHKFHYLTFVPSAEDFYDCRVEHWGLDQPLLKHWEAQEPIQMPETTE
DR4G115 (HLA DPB4:01, peptide LCAP) (human), sequence (P04440 30-225, chain 2 of 2, further chain): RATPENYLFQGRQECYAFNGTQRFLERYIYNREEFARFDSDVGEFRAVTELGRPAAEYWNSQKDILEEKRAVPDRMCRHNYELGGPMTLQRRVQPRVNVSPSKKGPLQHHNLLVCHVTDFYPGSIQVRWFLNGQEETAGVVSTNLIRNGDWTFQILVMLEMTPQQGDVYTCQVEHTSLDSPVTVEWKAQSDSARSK

Take Isotype control (antibody): the ECL signal in [1] was found to be 1250 ECL; in test [2], 392 ECL; in [3] it was 153 ECL; in [4], 1030 ECL; in [5] it was 250 ECL; in [6] it was 91 ECL. Further, the ECL signal in [7] is 603 ECL; in [8] it was 2220 ECL; in [9] it was 410 ECL; in [10], 2780 ECL; in [11], 1470 ECL; in test [12] it was 335 ECL. The ECL signal was 486 ECL in [13]; 781 ECL in [14]; 393 ECL in test [15]; 613 ECL in test [16]; 490 ECL in test [17].
